These binders were tested against BG505 gp120 (HIV-1 isolate BG505 (clade A), UniProt Q2N0S6) (assay: ELISA; 250 ng BG505 gp120 coated on the plate; monoclonal antibodies from 20 µg/mL in seven 6-fold dilutions, 1 hr, room temperature; detected with alkaline phosphatase anti-human F(ab')2). Details: both partners purified.

Binder | binding result
ElsE7 (antibody, source: Expi293 or 293F cells, transient, purified (Protein A Sepharose or Praesto AP)) VH: QVQLQESGPSLVKPSQTLSLTCTTSGFSLSDNTVGWVRQAPGKALQWLGSITPSGSTNYNPGLKSRLGITKDNSNSQVSLSLTSATAADSATYYCTTVHQQTRKSCPDGWMFGFDCGFHGWGSEDCVDDCSDILSAQTLSPIYTNAYHVDAWGQGLLVTVSS VL: QAVLTQPSSVSGSLGQTVSITCSGLSNNGENGDVSWYQLIPGSAPHTLMYGDTSRASGVPDRFSGSRSGNTASLTISSLQAEDEADYFCASTGDEMISLLFGSGTTLTVL | no binding (tested: 20 µg/mL)
Bess1 (antibody, also called Bess1_WT; source: Expi293 or 293F cells, transient, purified (Protein A Sepharose or Praesto AP)) VH: QVQLRESGPSLVKPSQTLSLTCTVSGISLSDKAVGWVRQAPGKALEWLGSIDAGGSTGYNPGLKSRLSITTDNSKSQVSLSMSGVTTEDSATYYCTTVHQKTLKQKTCPEGYSDDDGCDDSYGCGDDCCCYGGYSDYGGYEYACCSRTYTYEFHVDAWGQGLLVTVSS VL: QAVLNQPSSVSGSLGQRVSITCSGSSSNVGNGYVSWYQLIPGSAPRTLIYGDTSRASGVPDRFSGSRSGNTATLTISSLQAEDEADYFCASAEDSSSNAVFGSGTTLTVL | no binding (tested: 20 µg/mL)
Bess6 (antibody, source: Expi293 or 293F cells, transient, purified (Protein A Sepharose or Praesto AP)) VH: KVQLRESGPSLVKPSQTLSLICTVSGFSLSDKAVGWVRQAPGKALEWLGSIDTAGTTDHHPGLKSRLSITKDNSKNQVSLSLSSVTTEDSATYYCTTVHQPTSKQYSCPDGASVRTGGGWRWLCRGHDCCCVVEYIAYEQTPCTLTRTYEWHIDAWGQGLLVTVSS VL: QAVLNQPSSVSGSLGQRVSITCSGSSSNVGNGYVSWYQLIPGSAPRTLIYGDTSRASGVPDRFSGSRSGNTATLTISSLQAEDEADYFCASAEDSSSNAVFGSGTTLTVL | no binding (tested: 20 µg/mL)
ElsE1 (antibody, source: Expi293 or 293F cells, transient, purified (Protein A Sepharose or Praesto AP)) VH: KVQLRESGPSLIKPSQTLSLTCTTSIFSLIDKTVGWVRQAPGKSLEWLGSIDTSGNTGYNPGLKSRLHITKDNSRSQVSLSLSSVTTADSATYYCTTVHQQTRKGCPDGWRFGWDCGFHGYGQEDCYEDCIDILSSQTLSPTDAYEFHVDAWGQGLLVTVSS VL: QAVLTQPSSVSGSLGQRVSITCSGSSGNVGNGYVSWYQLIPGSAPRTLIYGDTSRASGVPDRFSGSRSGNTATLTITSLQAEDETDYFCASAEGSSNNAVFGSGTTLTVL | no binding (tested: 20 µg/mL)
ElsE3 (antibody, source: Expi293 or 293F cells, transient, purified (Protein A Sepharose or Praesto AP)) VH: KVQLQESGPSLVKPSQTLSLTCATSGFSLSDKTVGWVRQAPGKALEWLGSIDTSGNTGYNPLLKFRLSITKDNSKSQVSLSLSSATTADSATYYCTTVHQQTRKSCPDGYSFGYDCGFHGYGSEDCYPDCSDILTSDVVGPIDAYELHVDAWGQGLLVTVSS VL: QAVLTQPSSVSGSLGQRVSITCSGSSNNVGNGYVSWYQVIPGSAPRTLIYGDTSRASGVPDRFSGSRSGNTATLTITSLQAEDEADYFCSSAEDSSSNAIFGSGTTLTVL | no binding (tested: 20 µg/mL)
ElsE11 (antibody, source: Expi293 or 293F cells, transient, purified (Protein A Sepharose or Praesto AP)) VH: KVQLRESGPSLVKPSQTLSLTCTTSGFSLSDKTVGWVRQAPGKALEWLGSTDTSGNTGYNPGLKSRLSITKDNSKSQVSLSVSSVSTADSATYYCTTVRQQTRKSCPDGWTLAKDCGFYGYGSEDCYDDCTDILSSNTLSPTTTHEFNVDAWGQGLLVTVSS VL: QAVLTQPSSVSGSLGQRVSITCSGSSSNTGNGAVSWYQLIPGSAPRTLIYGDTSRTSGVPDRFSGSRSGNIATLTISSLQAEDEGDYFCGSAEDSSSNAIFGSGTTLTVL | no binding (tested: 20 µg/mL)
Bess7 (antibody, source: Expi293 or 293F cells, transient, purified (Protein A Sepharose or Praesto AP)) VH: QVQLRESGPSLVKPSQTLSLTCTVSGFSLNDKAVGWVRQAPGRALEWLGSVSTGGSTTYNPGLKPRLSITKDNSKSQISLTVTSVTTEDSATYYCTTVHQTTKTTKECPEGYNWDDGCGSELGCGGADCCCWGGVDEYAGDLYSCCSVAHTYEWYVDAWGQGLLVTVSS VL: QAVLNQPSSVSGSLGQRVSITCSGSSSNVGNGYVSWYQLIPGSAPRTLIYGDTSRASGVPDRFSGSRSGNTATLTISSLQAEDEADYFCASAEDSSSNAVFGSGTTLTVL | no binding (tested: 20 µg/mL)
Bess8 (antibody, source: Expi293 or 293F cells, transient, purified (Protein A Sepharose or Praesto AP)) VH: QVQLRESGPSLVKPSQTLSLTCTVSGFSLSDKAVGWVRQAPGKALEWLGSIDIGGSTGYNPGLKSRLSITKDNSKSQVSLSVTSVTTEDSATYYCTIVYQTTKTTKKCPDGYNYDDGCASDLGCGEADCCCYGGDDEYAGHLYSCCSYSHTYEWYVGAWGQGLLVTVSS VL: QAVLNQPSSVSGSLGQRVSITCSGSSSNVGNGYVSWYQLIPGSAPRTLIYGDTSRASGVPDRFSGSRSGNTATLTISSLQAEDEADYFCASAEDSSSNAVFGSGTTLTVL | no binding (tested: 20 µg/mL)
ElsE4 (antibody, source: Expi293 or 293F cells, transient, purified (Protein A Sepharose or Praesto AP)) VH: QVQLRESGPSLVKPSQTLSLTCTTSGFSLSDKTVGWVRQAPGKALEWLGSRDSSGKTAYNPGLKSRLSITNDNSKSQVSLSLSSVSTADSATYYCTTVHQQTRKSCPDGWSFGWDCGFHGYGVGDCYDDCTDILSSQTLSPTDTYELHIDAWGQGLLVTVSS VL: QAVLTQPSSVSGSLGQTVSITCSGTSSNVGNGYVTWYQVIPRSAPRTLIFGDTSRASGVPDRFSGSRSGNTATLTISSLQAEDEADYFCASAEDTSSNVVFGSGTTLTVL | no binding (tested: 20 µg/mL)
ElsE5 (antibody, source: Expi293 or 293F cells, transient, purified (Protein A Sepharose or Praesto AP)) VH: QVQLQESGPSLVKPSQTLSLTCTTSGFSLSDKTVGWVRQAPGKALEWLGSIDTSGRTGYNPGLKSRLDITKDNPKRQVSLSLSSVTTADSATYYCTTVHQQTRKGCPDGWSFGWDCGFHGYGREDCYDDCTDILSSQTLSPTDTYEFHVDAWGQGLLVTVSS VL: QAVLTQPSSVSGSLGQRVSITCSGSSSNVGNGYVSWYQLIPGSAPRTLIYGDTTRASGVPDRFSGSRSGNTATLSITSLQAEDETDYFCASAEDSSSNAVFGSGTTLTVL | no binding (tested: 20 µg/mL)
Bess2 (antibody, source: Expi293 or 293F cells, transient, purified (Protein A Sepharose or Praesto AP)) VH: KVQLRESGPSLVKPSQTLSLTCTVSGFSLSDKAVGWVRQAPGKALEWLGSIDTGGSTGYNPGLKSRLSITKDNSKSQVSLSVTSVTTEDSTTYYCTTVHQTTKTTKKCPDGYNYDDGCASDLGCGEADCCCYGGYDEYGGYLYSCCSYSYTYEWYVDAWGQGLLVTVSS VL: QAVLNQPSSVSGSLGQRVSITCSGSSSNVGNGYVSWYQLIPGSAPRTLIYGDTSRASGVPDRFSGSRSGNTATLTISSLQAEDEADYFCASAEDSSSNAVFGSGTTLTVL | no binding (tested: 20 µg/mL)
ElsE10 (antibody, source: Expi293 or 293F cells, transient, purified (Protein A Sepharose or Praesto AP)) VH: KVQLRESGPSLVKPSQTLSLTCTTSGFSLSEKTVGWVRQAPGKPLEWLGTINTSGSGGSNPGLKSRLHITKDNSQSQVSLSLSSVTTADSATYYCTTVHQQTRKRCPDGWSFGWDCGFSGYGSEDCYDDCTDILSSNTLSPTDTYELHVDAWGQGLLVTVSS VL: QAVLTQPSSVSGSLGQRVSITCSGSSSNVGNGYVSWYQLIPGSAPRTLIYGDTSRASGVPDRFSGSRSGNTATLTISSLQAEDEADYFCASAEGSSSNIVFGVGTTLTVL | no binding (tested: 20 µg/mL)
Bess5 (antibody, source: Expi293 or 293F cells, transient, purified (Protein A Sepharose or Praesto AP)) VH: QVQLQESGPSLVKPSQTLSLMCAASGFSLSDKTVGWVRQAPGKALEWLGSIDSSGSTGYNPGLKSRLTITKDSSKSQVSLSVSSVTTEDSATYYCTTVHQQTRNKEKTCPGGEDCGIGCCCAGCSATDYGCWDGSSYASYSYIYTYDIHVDAWGQGLLVTVSS VL: QAVLNQPSSVSGSLGQRVSITCSGSSSNVGNGYVSWYQLIPGSAPRTLIYGDTSRASGVPDRFSGSRSGNTATLTISSLQAEDEADYFCASAEDSSSNAVFGSGTTLTVL | no binding (tested: 20 µg/mL)
ElsE8 (antibody, source: Expi293 or 293F cells, transient, purified (Protein A Sepharose or Praesto AP)) VH: KVQLQESGPSLVKPSQTLSLTCTTSGFSLSDKGIAWVRQAPGKALEWLGSTDTTGSTNYNPGLKSRVIVTKDNSKSQVSLSLSSVTIADSATYYCTAVVQETRKSCPDGWRFGWDCGFHGYGTEDCYEDCVDILSSETVSSTDRYELHVDAWGQGLLVTVSS VL: QAVLSQPSSVSGSLGQRVSITCSGSSSNVGNGYVSWYQQFPGSAPRTLIYGDTGRSSGVPDRFSGSRSGNTATLSISSLQAEDEADYFCASAEGSSKHAVFGSGTTLTVL | no binding (tested: 20 µg/mL)
ElsE6 (antibody, source: Expi293 or 293F cells, transient, purified (Protein A Sepharose or Praesto AP)) VH: KVQLQESGPSLVKPSQTLSLTCTTSGFSLSDNAVGWVRQAPGKALEWLGSIDSGGSTGYNPGLKSRLSITKDNSKSQVSLSVSSVTTADSATYYCTTVHQQTRKSCPAGYTLAKDCGFYGYGSEDCYDDCSDILSSHTLSPTTTYELHVDAWGQGLLVTVSS VL: QAVLTQPSSVSGSLGQRVSITCSGSSTNVGNGYVSWYQLIPGSAPRTLIYGDTNRASGVPDRFSGSRSGNTATLTISSLQAEDEADYFCLSAEDSSSNAIFGSGTTLIVL | no binding (tested: 20 µg/mL)
Bess3 (antibody, source: Expi293 or 293F cells, transient, purified (Protein A Sepharose or Praesto AP)) VH: QVQLRESGPSLVKPSQTLSLTCTVSGFSLSDKAVGWVRQAPGKALEWLGSIDNGENIGYNPGLKSRLSITKDNSKSQVSLSVSSVTTEDSATYYCATVHQTTKTTKQCPDGYNYDDGCASDLGCGEADCCCYGGYDDYGGYLYSCCSYTYTYEWYVDTWGQGLLVTVSS VL: QAVLNQPSSVSGSLGQRVSITCSGSSSNVGNGYVSWYQLIPGSAPRTLIYGDTSRASGVPDRFSGSRSGNTATLTISSLQAEDEADYFCASAEDSSSNAVFGSGTTLTVL | no binding (tested: 20 µg/mL)
ElsE9 (antibody, source: Expi293 or 293F cells, transient, purified (Protein A Sepharose or Praesto AP)) VH: KVQLRESGPSLVKPSQTLSLTCTTSGFSFSDKTVGWVRQAPGKALEWLGSIDTSGTTGYNPGLKSRLSITRDDSKSQVSLSLSSVTTADLATYYCTTVRQQVHKTCPQGWRFGWDCGFHGYGSDDCYEDCIDILSSQTLSAEDTYELHVDAWGQGLLVTVSS VL: QAVLTQPQSVRGSLGQRVSITCSGSSSNVGNGYVSWYQLIPGSAPRTLMYGDTTRASGVPDRFSGSRSGNTATLTISSLQAEDEADYFCASADGSSLHVAFGSGTTLTVL | no binding (tested: 20 µg/mL)

From paper doi:10.1101/2024.02.13.580058 (bioRxiv, 2024)
